Assay results published in article PMC7379967 (The Febs Journal, 2018).

B1: proMMP‐9 from CDG patients: serum proMMP‐9 of PMM2‐CDG patients, defective N‐glycosylation (protein, UniProt P14780 20-707, looked up)
pro-form: APRQRQSTLVLFPGDLRTNLTDRQLAEEYLYRYGYTRVAEMRGESKSLGPALLLLQKQLSLPETGELDSATLKAMRTPRCGVPDLGRFQTFEGDLKWHHHNITYWIQNYSEDLPRAVIDDAFARAFALWSAVTPLTFTRVYSRDADIVIQFGVAEHGDGYPFDGKDGLLAHAFPPGPGIQGDAHFDDDELWSLGKGVVVPTRFGNADGAACHFPFIFEGRSYSACTTDGRSDGLPWCSTTANYDTDDRFGFCPSERLYTQDGNADGKPCQFPFIFQGQSYSACTTDGRSDGYRWCATTANYDRDKLFGFCPTRADSTVMGGNSAGELCVFPFTFLGKEYSTCTSEGRGDGRLWCATTSNFDSDKKWGFCPDQGYSLFLVAAHEFGHALGLDHSSVPEALMYPMYRFTEGPPLHKDDVNGIRHLYGPRPEPEPRPPTTTTPQPTAPPTVCPTGPPTVHPSERPTAGPTGPPSAGPTGPPTAGPSTATTVPLSPVDDACNVNIFDAIAEIGNQLYLFKDGKYWRFSEGRGSRPQGPFLIADKWPALPRKLDSVFEERLSKKLFFFSGRQVWVYTGASVLGPRRLDKLGLGADVAQVTGALRSGRGKMLLFSGRRLWRFDVKAQMVDPRSASEVDRMFPGVPLDTHDVFQYREKAYFCQDRFYWRVSSRSELNQVDQVGYVTYDILQCPED
modifications: pro-form
B2: recombinant proMMP‐9: recombinant full‐length human proMMP‐9 expressed in Sf‐9 insect cells (protein, UniProt P14780 20-707, looked up)
pro-form: B1 pro-form
modifications: pro-form

Assays:
cdMMP‐3 [1] = biological target: T1, cdMMP‐3 (Homo sapiens, UniProt P08254); test: Gelatin‐Sepharose bound serum proMMP‐9 activation by cdMMP‐3, zymography; type: biochemical; conditions: 5 μl serum, 0-14.2 nM cdMMP‐3, 3 h, 37 °C, CDG patients n = 5, healthy controls n = 7, Fig. 8
T1 sequence (P08254 100-272 limits assumed): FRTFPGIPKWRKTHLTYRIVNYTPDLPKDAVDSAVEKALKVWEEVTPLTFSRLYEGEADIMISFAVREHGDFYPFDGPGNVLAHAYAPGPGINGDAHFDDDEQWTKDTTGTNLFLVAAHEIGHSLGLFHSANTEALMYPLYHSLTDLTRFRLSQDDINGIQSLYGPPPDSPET

cdMMP‐3 [2] = biological target: T1, cdMMP‐3; test: Stepwise activation of proMMP‐9 glycoforms by cdMMP‐3, gelatin zymography; type: biochemical; conditions: with galectin‐3 (1/10), Fig. 9B

Row | Molecule | activation of serum proMMP‐9 by MMP‐3 (cdMMP‐3 [1]) | conversion into active form on overnight incubation with cdMMP‐3 and galectin‐3 (cdMMP‐3 [2])
1 | B1 | significantly faster activation | –
2 | B2 | – | fully converted into its active form
